Measurements taken from publication PMC3458550.

Molecular target: flag-tagged Ran Q69L (GTPase-inactive mutant, RanGTP locked form), P62826
Experiment: co-IP
Details: remark: other sources report otherwise

B1: EGFP-tagged full length human IPO5 (importin 5), O00410-3 1-1115 (natural protein)
chain: MPEDQVGKLEATENTISAMAAAAAEQQQFYLLLGNLLSPDNVVRKQAEETYENIPGQSKITFLLQAIRNTTAAEEARQMAAVLLRRLLSSAFDEVYPALPSDVQTAIKSELLMIIQMETQSSMRKKVCDIAAELARNLIDEDGNNQWPEGLKFLFDSVSSQNVGLREAALHIFWNFPGIFGNQQQHYLDVIKRMLVQCMQDQEHPSIRTLSARATAAFILANEHNVALFKHFADLLPGFLQAVNDSCYQNDDSVLKSLVEIADTVPKYLRPHLEATLQLSLKLCGDTSLNNMQRQLALEVIVTLSETAAAMLRKHTNIVAQTIPQMLAMMVDLEEDEDWANADELEDDDFDSNAVAGESALDRMACGLGGKLVLPMIKEHIMQMLQNPDWKYRHAGLMALSAIGEGCHQQMEGILNEIVNFVLLFLQDPHPRVRYAACNAVGQMATDFAPGFQKKFHEKVIAALLQTMEDQGNQRVQAHAAAALINFTEDCPKSLLIPYLDNLVKHLHSIMVLKLQELIQKGTKLVLEQVVTSIASVADTAEEKFVPYYDLFMPSLKHIVENAVQKELRLLRGKTIECISLIGLAVGKEKFMQDASDVMQLLLKTQTDFNDMEDDDPQISYMISAWARMCKILGKEFQQYLPVVMGPLMKTASIKPEVALLDTQDMENMSDDDGWEFVNLGDQQSFGIKTAGLEEKSTACQMLVCYAKELKEGFVEYTEQVVKLMVPLLKFYFHDGVRVAAAESMPLLLECARVRGPEYLTQMWHFMCDALIKAIGTEPDSDVLSEIMHSFAKCIEVMGDGCLNNEHFEELGGILKAKLEEHFKNQELRQVKRQDEDYDEQVEESLQDEDDNDVYILTKVSDILHSIFSSYKEKVLPWFEQLLPLIVNLICPHRPWPDRQWGLCIFDDVIEHCSPASFKYAEYFLRPMLQYVCDNSPEVRQAAAYGLGVMAQYGGDNYRPFCTEALPLLVRVIQSADSKTKENVNATENCISAVGKIMKFKPDCVNVEEVLPHWLSWLPLHEDKEEAVQTFNYLCDLIESNHPIVLGPNNTNLPKIFSIIAEGEMHEAIKHEDPCAKRLANVVRQVQTSGGLWTECIAQLSPEQQAAIQELLNSA
fold co-precipitated (IPO5/Ran) against Ran T24N: 2 fold
